# Data from patent publication US20110130457A1, “Wax-Based Emulsion for the Treatment of Dry Eye Conditions” (UNIVERSITY OF LOUISVILLE RESEARCH FOUNDATION, INC., priority 2008, published 2011).
# Experiments:
# β-lactoglobulin = biological target: T1, β-lactoglobulin (Bos taurus, UniProt P02754); test: Wax-lactoglobulin binding by intrinsic tryptophan fluorescence intensity and anisotropy
# T1 sequence (P02754 17-178): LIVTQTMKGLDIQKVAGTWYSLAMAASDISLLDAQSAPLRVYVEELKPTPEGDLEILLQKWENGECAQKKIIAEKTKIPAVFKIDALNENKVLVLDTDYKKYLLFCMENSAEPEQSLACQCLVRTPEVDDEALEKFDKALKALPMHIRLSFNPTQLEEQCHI
# Source text: Changes in protein concentration alone are unlikely to affect the rate of evaporation of tears. […] (See Pandit J. C., Nagyova B., Bron A. J., et al, Physical properties of stimulated and unstimulated tears. Exp Eye Res. 1999; 68:247-253.) In this embodiment of the present invention, wax interacted with lactoglobulin. Wax-lactoglobulin binding was quantified by measuring changes in the intrinsic fluorescence intensity of tryptophan. Tryptophan fluorescence is sensitive to local changes in electrostatic fields. Therefore, variations in the local environment/polarity of tryptophan leads to changes in its fluorescence properties as described by Vivian and Callis. Vivian J. T., Callis P. R., Mechanisms of tryptophan fluorescence shifts in proteins, Biophys. J. 2001; 80:2093-2109.) Substrate binding and protein structural changes are commonly measured by observing changes in tryptophan fluorescence intensity, wavelength maximum, band shape, anisotropy, fluorescence lifetimes, and energy transfer.
# A wax emulsion that is stable for at least 4 weeks was prepared as described previously by the inventors. […] A quantified amount of wax (0.156 to 1.25 μL/mL) was mixed with 1 mg/mL lactoglobulin in phosphate buffered saline and equilibrated for 12 hours at 34° C. under an atmosphere of argon. […] Emission spectra were measured from 300 to 400 nm with an excitation wavelength of 270 nm. […]
# [1] = Evaporation rates measured in vitro (gravimetric); format: physicochemical; conditions: for Influence on the rate of evaporation: concentrations of 50 to 100 mg/mL, at 25 or 34° C.
# Procedure: Samples (0.750 mL) for evaporation rate measurements were placed into a plastic container 0.8 cm deep and 1.500 cm inside diameter. Temperature and relative humidity were recorded at the start and end of each experiment. Samples were weighed every minute for 10 minutes using a Mettler-Toledo AT261 analytical balance (Columbus, Ohio). The balance was calibrated and certified by a Mettler technician prior to use. The weights of as many as 7 samples were measured sequentially, i.e., after measuring the weights of sample 1 for ten minutes, the weights of sample 2 were measured for ten minutes, followed by the next sample. The weights of four 10 minute weighing sequences were plotted versus time and the rate of evaporation was calculated from the slope of the data in the plots that were fitted using least squares linear regression analysis. The rate of evaporation at 34° C. was measured using four, 3-minute weighing sequences instead of ten.
# The rate of evaporation with 20 standard cubic feet per minute (SCFM) of dry air flowing over the sample at 24° C. was measured. Air was completely dried using a Keaser desiccant dry, model KLDW-10S (Columbus, Ohio) attached to a Purimetrics Compressor, model 750-2 (Edina, Minn.) and a 80 gallon air receiver tank. Complete removal of water vapor from the air was confirmed using an infrared spectrometer. The sample was placed under a flow of dry air for 1 minute and removed from the dry air for two minutes and weighed in a Mettler-Toledo analytical balance. This cycle was repeated ten times. The rate of evaporation in dry air was calculated from the total rate of evaporation minus the contribution of the evaporation in the room air. Evaporation rate was expressed as μm/min, the rate of thickness lost at the surface per minute. Changes in the thickness of the tear film (˜5 μm) due to evaporation can be estimated readily by expressing the evaporation rate in μm/min.
# [2] = 50 mg/mL, 24.8° C., relative humidity 40.6%
# [3] = 100 mg/mL, 24.8° C., relative humidity 40.6%
Compound,Fluorescence intensity of the tryptophan residues in lactoglobulin (β-lactoglobulin; as little as 20 nmoles (~0.1 μg) wax added to 1 mg β-lactoglobulin in 1 ml phosphate buffered saline),"Tryptophan anisotropy of lactoglobulin (β-lactoglobulin; with the addition of wax, n=6, 0.138±0.009 with no wax, p=0.04, SEM)","Rate of Evaporation [1, 2]","Rate of Evaporation [1, 3]",Influence on the rate of evaporation [1],"Rate of Evaporation ([1]; 100 mg/mL, 34° C.)"
"CCCCCCCC/C=C\CCCCCCCC(=O)OCCCCCCCCCCCCCCCC [palmityloleate wax, palmityloleate]",caused a decrease in the fluorescence intensity,0.115±0.004,–,–,–,–
Lysozyme,–,–,3.0 μm/min,3.0 μm/min,did not significantly influence the rate of evaporation,–
Mucin,–,–,2.9 μm/min,3.0 μm/min,did not significantly influence the rate of evaporation,–
"β-Lactoglobulin: model tear protein, used as a model for lipocalin",–,–,3.08 μm/min,3.12 μm/min,did not significantly influence the rate of evaporation,9.1 μm/min
